Results reported in the RNAGym collection of RNA variant scans (doi:10.1073/pnas.2313332121).

B1: TPR t1 (parent)
chain: GACCAAUCUGCCCUCAGAGCUCGAGAACAUCUUCGGAUGCAGAGGAGGCAGGCUUCGGUGGCGCGAUAGCGCCAACGUCCUCAACCUCCAAUGCAUCCCACCACAUGAUGAUGCCUGAAGAGCCUUGGUUUUUUG

Variants of: B1
Experiment: polymerase ribozyme fitness, log enrichment relative to wild type (log ratio); higher = more active; in vitro selection for triplet polymerase activity
Procedure, shortened: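 Input and output libraries were sequenced on Illumina after a single in vitro selection round, run in triplicate on PCR-built, transcribed mutant libraries of each subunit of a heterodimeric triplet polymerase ribozyme. Selection annealed libraries to a biotinylated primer, the partner subunit and triplets, incubated them frozen at −7 °C, then gel-excised extended constructs for streptavidin-bead capture and RT-PCR. Genotypes with ≥10 input reads and ≥1 read per output were kept. Fitness is the logarithm, taken in base 2, of genotype enrichment divided by wild-type enrichment, using inverse-variance-weighted replicate averages.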

Variant | polymerase ribozyme fitness (log ratio)
GACCAAUCUGCCCUCAGAGCUCGAGAACAUCUUCGGAUGCAGAGGGUGCAGGCUUCGGUGGCGCGAUAGCGCCAACGUCCUCAACCUCCAAUGCAUCCCACCACAUGAUGAUGCCUGAAUAGCCUUGGUUUAUUG [A46G G47U G120U U132A] | -1.09
GACCAAUCUGCCCUCAGAGCUCGAGAACAUCUUCGGAUGCAGAGGGGGCAGGCUUCGGUGGCGCGAUAGCGCCCACGUCCUCAACCUCCAAUGCAUCCCACCACAUGAUGAUGCCUGAAGAGCCUUGGUUUUAUG [A46G A74C U133A] | -0.745
GACCAAUCUGCCCUCAGAGCUCGAGAACAUCUUCGGAUGCAGAGGGGGCAGGCUGCGGUGGCGCGAUAGCGCCAACGUCCUCAACCUCCAAUGCAUCCCACCACAUGAUGAUGCCUGAAGAGCCUUGGUUUUUUG [A46G U55G] | 0.201
GACCAAUCUGCCCUCAGAGCUCGAGAACAUCUUCGGAUGCAGAGGCGUCAGGCUUCGGUGGCGCGAUAGCGCCAACGUCCUCAACCUCCAAUGCAUCCCACCACAUGAUGAUACCUGAAGAGCCUUGGUUUUUUG [A46C G48U G113A] | -3
GACCAAUCUGCCCUCAGAGCUCGAGAACAUCUUCGGAUGCAGAGGGGGCAGGAUUCGGUGGCGCGAUAGCGCCAACGUCCUCAACCUCCAAUGCAUCCCACCACAUGAUGAUGCCUGAAGAGCCUUGGUUUUUUG [A46G C53A] | -0.35
GACCAAUCUGCCCUCAGAGCUCGAGAACAUCUUCGGAUGCAGAGGCGGCAGGCUUCGGUGGUGCGAUAGCGCCAACGUCCUCAACUUCCAAUGCAUUCCACCACAUGAUGUUGCCUGAAGAGCUUUGGUUUUUUG [A46C C62U C86U C97U A111U C124U] | -5.27
GACCAAUCUGCCCUCAGAGCUCGAGAACAUCUUCGGAUGCAGAGGCGGCAGGCUUCAGUGGGGCGAUAGCGCCAACGUCCUCAACCUCCAAUGCAUCCCACCACAUGAUGAUGCCUGAAGGGCCUUGGUUUUUUG [A46C G57A C62G A121G] | -1.34
GACCAAUCUGCCCUCAGAGCUCGAGAACAUCUUCGGAUGCAGAGGGGGCGGGCUUCGGUGGCGCGAUAGCGCCAACGUCCUCAACCCCCAAUGCAUCCCACCACAUGAUGAUGCCUGAAGAGCCUUGGUUUUUUG [A46G A50G U87C] | -0.00584
GACCAAUCUGCCCUCAGAGCUCGAGAACAUCUUCGGAUGCAGAGGCGACAGGCUUCGGUGGCGCGAUAGCGCCAACGUCCUCAACCUCCAAUGCAUCCCACCACAUGAUGAUGCCUGAAGAGCCUUGGUUUUUUG [A46C G48A] | -1.9
GACCAAUCUGCCCUCAGAGCUCGAGAACAUCUUCGGAUGCAGAGGGGGCAGGCUUCGGUGGCGCGAUAGCGCCAACGUCCUCAACCUCCGAUGCAUCCCACCACAUGAUGAUGCCUGAAGAGCCUUGGUUUUUUG [A46G A90G] | 0.482
GACCAAUCUGCCCUCAGAGCUCGAGAACAUCUUCGGAUGCAGAGGGGGCGGGCUUCGGUGGCGCGAUAGCGCCAACGUCCUCAACCUCCAAUGCAUCCCACCACAUGAUGAUGCCUGAAGAGCCUUGGUUUUUUG [A46G A50G] | 0.425
GACCAAUCUGCCCUCAGAGCUCGAGAACAUCUUCGGAUGCAGAGGCGGCAGGCUUGGGUGGCGCGAUAGCGGCAACGUCCUCAACCACCAAUGCAUCCCUCCACAUGAUGAUGCCUGAAGAGCCUUGGUUUUUUG [A46C C56G C72G U87A A100U] | -1.12
GACCAAUCUGCCCUCAGAGCUCGAGAACAUCUUCGGAUGCAGAGGGGGCAGGCUUCGGUGACGCGAUAGCGCCAACGUCCUCAACCUCCAAUGCAUCCCCCCACAUGAUGAUGCCUGAAGAGCCUUGGUUUCUUG [A46G G61A A100C U132C] | -0.683
GACCAAUCUGCCCUCAGAGCUCGAGAACAUCUUCGGAUGCAGAGGCGGCAGGCUUGGGUGGCGCGAUAGAGCCAACGUCCUCAACCUCCAAUGCAUCCCACCACAUGAUGAUGCCUGAAGAGCCUUGGUUUUUUG [A46C C56G C70A] | -5.02
GACCAAUCUGCCCUCAGAGCUCGAGAACAUCUUCGGAUGCAGAGGGGGCAGGCUUCGGUGGCGCGAUAGCGCUAACGUCCUCAACCACCACUGCAUCCCACCACAUGAUGAUACCUGAAGAGCCUUGGUUUUUUG [A46G C73U U87A A91C G113A] | -2.54
GACCAAUCUGCCCUCAGAGCUCGAGAACAUCUUCGGAUGCAGAGGGGGCAGGCUUCGGUGGCGCGAUAGCGCCAACGUCCUCAACCUCCAAUGCAUCCCACCACAUGAUGAUGCCUGAAGAGCUUUGGUUUUUUG [A46G C124U] | 0.675
GACCAAUCUGCCCUCAGAGCUCGAGAACAUCUUCGGAUGCAGAGGGGGCAGGCUUCAGUGGCGCGAUAGCGCUAACGUCCUCGACCUCCAAUGCAUCCCACCACAUGAUGACGCCUGAAGAGCCUUGGUUUUUUG [A46G G57A C73U A83G U112C] | -0.119
GACCAAUCUGCCCUCAGAGCUCGAGAACAUCUUCGGAUGCAGAGGCGGCAGGCUUCGGUGGCGCGAUAGCGCCAACGUCCUCAACCUCCAAUGCAUCCCACCACAUGAUGAUGCGUAAAGAGCCUUGGUUUUUUG [A46C C115G G117A] | -4.09
GACCAAUCUGCCCUCAGAGCUCGAGAACAUCUUCGGAUGCAGAGGCAGCAGGAUUCGGUAGCGCGAUAGCGCGAACGUCCUCAACCUCCAAUGCAUCCCACCACAUGAUGAUGCCUGAAGAGCCUUGGUUUUUUG [A46C G47A C53A G60A C73G] | -1.61
GACCAAUCUGCCCUCAGAGCUCGAGAACAUCUUCGGAUGCAGAGGGCGCAGGCUUCGGUGGCGCGAUAGCGCCAACGUCCUCAACCUCCAAUGCAACCCACCACAUGAUGAUGCCUGAAGAGCCUUGGUUUUUUG [A46G G47C U96A] | -3.35
GACCAAUCUGCCCUCAGAGCUCGAGAACAUCUUCGGAUGCAGAGGCGGCAGGCUUCGGUGGCGCGAUAGUGCCAACGUCCUCAACCUCCAAUGCAUCCCAUCACAUGAUGAUGCCUGAAGAGCCUUGGUUUUUUG [A46C C70U C101U] | -1.31
